Key:
P6A-bN = target: T1, P6A-bN; assay: two-hybrid library CCNG1;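 note: natural log of median RNA to DNA barcode read ratio; higher means stronger binding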
T1 chain: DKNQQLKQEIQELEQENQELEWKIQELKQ

P4A-bN = target: T2, P4A-bN; assay: two-hybrid library CCNG1;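 note: natural log of median RNA to DNA barcode read ratio; higher means stronger binding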
T2 chain: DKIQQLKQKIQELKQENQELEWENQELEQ

P9A-bN = target: T3, P9A-bN; assay: two-hybrid library CCNG1;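 note: natural log of median RNA to DNA barcode read ratio; higher means stronger binding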
T3 chain: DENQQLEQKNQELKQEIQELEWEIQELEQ

P8A-bN = target: T4, P8A-bN; assay: two-hybrid library CCNG1;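 note: natural log of median RNA to DNA barcode read ratio; higher means stronger binding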
T4 chain: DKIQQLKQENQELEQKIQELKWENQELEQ

P7A-bN = target: T5, P7A-bN; assay: two-hybrid library CCNG1;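 note: natural log of median RNA to DNA barcode read ratio; higher means stronger binding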
T5 chain: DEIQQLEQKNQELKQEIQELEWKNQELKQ

4H2444-bA = target: T6, 4H2444-bA; assay: two-hybrid library CCNG1;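 note: natural log of median RNA to DNA barcode read ratio; higher means stronger binding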
T6 chain: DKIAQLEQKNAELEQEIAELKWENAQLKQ

4H2518-bA = target: T7, 4H2518-bA; assay: two-hybrid library CCNG1
T7 chain: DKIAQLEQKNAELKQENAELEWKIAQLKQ

4H730-bA = target: T8, 4H730-bA; assay: two-hybrid library CCNG1
T8 chain: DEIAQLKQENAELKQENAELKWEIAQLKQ

4H349-bA = target: T9, 4H349-bA; assay: two-hybrid library CCNG1
T9 chain: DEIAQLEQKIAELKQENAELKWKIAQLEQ

4H932-bA = target: T10, 4H932-bA; assay: two-hybrid library CCNG1
T10 chain: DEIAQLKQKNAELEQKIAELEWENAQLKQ

4H2931-bA = target: T11, 4H2931-bA; assay: two-hybrid library CCNG1
T11 chain: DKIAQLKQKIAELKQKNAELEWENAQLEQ

4H949-bA = target: T12, 4H949-bA; assay: two-hybrid library CCNG1
T12 chain: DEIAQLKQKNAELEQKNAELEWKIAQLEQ

4H2760-bA = target: T13, 4H2760-bA; assay: two-hybrid library CCNG1
T13 chain: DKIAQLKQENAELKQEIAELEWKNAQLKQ

4H492-bA = target: T14, 4H492-bA; assay: two-hybrid library CCNG1
T14 chain: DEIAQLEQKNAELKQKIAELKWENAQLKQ

4H3041-bA = target: T15, 4H3041-bA; assay: two-hybrid library CCNG1
T15 chain: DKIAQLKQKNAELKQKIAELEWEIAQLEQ

4H796-bA = target: T16, 4H796-bA; assay: two-hybrid library CCNG1
T16 chain: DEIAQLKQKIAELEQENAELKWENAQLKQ

4H3364-bA = target: T17, 4H3364-bA; assay: two-hybrid library CCNG1
T17 chain: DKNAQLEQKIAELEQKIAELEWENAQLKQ

4H2859-bA = target: T18, 4H2859-bA; assay: two-hybrid library CCNG1
T18 chain: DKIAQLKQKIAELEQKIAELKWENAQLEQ

4H264-bA = target: T19, 4H264-bA; assay: two-hybrid library CCNG1
T19 chain: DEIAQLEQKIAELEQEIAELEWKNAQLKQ

4H3381-bA = target: T20, 4H3381-bA; assay: two-hybrid library CCNG1
T20 chain: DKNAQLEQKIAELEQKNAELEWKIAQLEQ

4H56-bA = target: T21, 4H56-bA; assay: two-hybrid library CCNG1
T21 chain: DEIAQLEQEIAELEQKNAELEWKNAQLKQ

4H2585-bA = target: T22, 4H2585-bA; assay: two-hybrid library CCNG1
T22 chain: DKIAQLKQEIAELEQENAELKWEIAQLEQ

4H3297-bA = target: T23, 4H3297-bA; assay: two-hybrid library CCNG1
T23 chain: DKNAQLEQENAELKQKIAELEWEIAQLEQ

4H3057-bN = target: T24, 4H3057-bN; assay: two-hybrid library CCNG1
T24 chain: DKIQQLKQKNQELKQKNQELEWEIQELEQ

4H2839-bN = target: T25, 4H2839-bN; assay: two-hybrid library CCNG1
T25 chain: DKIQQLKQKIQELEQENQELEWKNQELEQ

4H741-bN = target: T26, 4H741-bN; assay: two-hybrid library CCNG1
T26 chain: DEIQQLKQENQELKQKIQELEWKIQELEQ

4H2503-bN = target: T27, 4H2503-bN; assay: two-hybrid library CCNG1
T27 chain: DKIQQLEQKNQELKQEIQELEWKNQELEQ

4H2692-bN = target: T28, 4H2692-bN; assay: two-hybrid library CCNG1
T28 chain: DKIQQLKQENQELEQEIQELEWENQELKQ

4H348-bN = target: T29, 4H348-bN; assay: two-hybrid library CCNG1
T29 chain: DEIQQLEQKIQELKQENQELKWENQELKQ

4H492-bN = target: T30, 4H492-bN; assay: two-hybrid library CCNG1
T30 chain: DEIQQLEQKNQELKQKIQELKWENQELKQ

4H319-bN = target: T31, 4H319-bN; assay: two-hybrid library CCNG1
T31 chain: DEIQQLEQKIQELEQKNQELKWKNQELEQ

4H2588-bN = target: T32, 4H2588-bN; assay: two-hybrid library CCNG1
T32 chain: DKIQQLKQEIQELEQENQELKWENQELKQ

4H2717-bN = target: T33, 4H2717-bN; assay: two-hybrid library CCNG1
T33 chain: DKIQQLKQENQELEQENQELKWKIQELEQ

O4-bS = target: T34, O4-bS; assay: two-hybrid library CCNG1
T34 chain: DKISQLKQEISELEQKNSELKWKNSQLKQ

4H2915-bN = target: T35, 4H2915-bN; assay: two-hybrid library CCNG1
T35 chain: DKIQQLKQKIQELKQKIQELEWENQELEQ

4H40-bN = target: T36, 4H40-bN; assay: two-hybrid library CCNG1
T36 chain: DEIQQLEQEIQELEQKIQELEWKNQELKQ

4H3277-bN = target: T37, 4H3277-bN; assay: two-hybrid library CCNG1
T37 chain: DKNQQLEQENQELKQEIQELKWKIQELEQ

4H477-bN = target: T38, 4H477-bN; assay: two-hybrid library CCNG1
T38 chain: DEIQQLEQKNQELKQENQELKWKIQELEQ

P4A = target: T39, P4A; assay: two-hybrid library CCNG1
T39 chain: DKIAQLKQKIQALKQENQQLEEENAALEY

O8-bN = target: T40, O8-bN; assay: two-hybrid library CCNG1
T40 chain: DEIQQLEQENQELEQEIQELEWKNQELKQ

4H953-bH = target: T41, 4H953-bH; assay: two-hybrid library CCNG1
T41 chain: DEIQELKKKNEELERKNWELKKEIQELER

4H918-bH = target: T42, 4H918-bH; assay: two-hybrid library CCNG1
T42 chain: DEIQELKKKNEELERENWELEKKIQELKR

4H968-bH = target: T43, 4H968-bH; assay: two-hybrid library CCNG1
T43 chain: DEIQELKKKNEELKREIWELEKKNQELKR

4H855-bH = target: T44, 4H855-bH; assay: two-hybrid library CCNG1
T44 chain: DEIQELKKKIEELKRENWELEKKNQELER

4H2513-AA = target: T45, 4H2513-AA; assay: two-hybrid library CCmax; settings: mean of both orientations
T45 chain: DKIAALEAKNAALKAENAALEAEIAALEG

4H2536-AA = target: T46, 4H2536-AA; assay: two-hybrid library CCmax; settings: mean of both orientations
T46 chain: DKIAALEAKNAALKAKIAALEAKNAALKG

4H3664-AA = target: T47, 4H3664-AA; assay: two-hybrid library CCmax; settings: mean of both orientations
T47 chain: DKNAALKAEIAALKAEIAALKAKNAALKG

4H3605-AA = target: T48, 4H3605-AA; assay: two-hybrid library CCmax; settings: mean of both orientations
T48 chain: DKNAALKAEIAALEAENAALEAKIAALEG

4H2608-AA = target: T49, 4H2608-AA; assay: two-hybrid library CCmax; settings: mean of both orientations
T49 chain: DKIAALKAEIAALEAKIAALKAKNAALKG

4H55-AA = target: T50, 4H55-AA; assay: two-hybrid library CCmax; settings: mean of both orientations
T50 chain: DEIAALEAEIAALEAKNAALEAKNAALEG

4H2726-AA = target: T51, 4H2726-AA; assay: two-hybrid library CCmax; settings: mean of both orientations
T51 chain: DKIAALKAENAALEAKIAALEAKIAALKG

4H481-AA = target: T52, 4H481-AA; assay: two-hybrid library CCmax; settings: mean of both orientations
T52 chain: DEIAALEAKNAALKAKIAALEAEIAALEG

4H3625-AA = target: T53, 4H3625-AA; assay: two-hybrid library CCmax; settings: mean of both orientations
T53 chain: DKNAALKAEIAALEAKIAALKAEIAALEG

4H2614-AA = target: T54, 4H2614-AA; assay: two-hybrid library CCmax; settings: mean of both orientations
T54 chain: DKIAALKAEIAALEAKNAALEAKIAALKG

4H3922-AA = target: T55, 4H3922-AA; assay: two-hybrid library CCmax; settings: mean of both orientations
T55 chain: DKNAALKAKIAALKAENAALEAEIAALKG

4H2238-AA = target: T56, 4H2238-AA; assay: two-hybrid library CCmax
T56 chain: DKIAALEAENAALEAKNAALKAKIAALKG

4H4033-AA = target: T57, 4H4033-AA; assay: two-hybrid library CCmax; settings: mean of both orientations
T57 chain: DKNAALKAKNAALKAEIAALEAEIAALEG

4H662-AA = target: T58, 4H662-AA; assay: two-hybrid library CCmax; settings: mean of both orientations
T58 chain: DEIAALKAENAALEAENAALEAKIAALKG

4H2935-AA = target: T59, 4H2935-AA; assay: two-hybrid library CCmax; settings: mean of both orientations
T59 chain: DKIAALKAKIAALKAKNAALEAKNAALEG

4H369-AA = target: T60, 4H369-AA; assay: two-hybrid library CCmax; settings: mean of both orientations
T60 chain: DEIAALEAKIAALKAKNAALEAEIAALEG

4H327-AA = target: T61, 4H327-AA; assay: two-hybrid library CCmax; settings: mean of both orientations
T61 chain: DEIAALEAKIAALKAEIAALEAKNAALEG

B1: P4A-bN (peptide)
chain: DKIQQLKQKIQELKQENQELEWENQELEQ
interaction score (P6A-bN): -1.54
interaction score (P4A-bN): -1.26
interaction score (P9A-bN): -0.681
interaction score (P8A-bN): -0.841
interaction score (P7A-bN): -1.45

B2: 4H2444-bA (peptide)
chain: DKIAQLEQKNAELEQEIAELKWENAQLKQ
interaction score (4H2444-bA): 1.3
interaction score (4H2518-bA): -0.678
interaction score (4H730-bA): -0.297
interaction score (4H349-bA): -0.457
interaction score (4H932-bA): -1.36
interaction score (4H2931-bA): 0.114
interaction score (4H949-bA): -0.993
interaction score (4H2760-bA): 1.15
interaction score (4H492-bA): 1.66
interaction score (4H3041-bA): 0.922
interaction score (4H796-bA): -0.412
interaction score (4H3364-bA): -0.57
interaction score (4H2859-bA): -0.0526
interaction score (4H264-bA): 0.179
interaction score (4H3381-bA): -0.537
interaction score (4H56-bA): -1.91
interaction score (4H2585-bA): 0.675
interaction score (4H3297-bA): 0.252

B3: 4H2503-bN (peptide)
chain: DKIQQLEQKNQELKQEIQELEWKNQELEQ
interaction score (4H3057-bN): -0.657
interaction score (4H2839-bN): -0.436
interaction score (4H741-bN): -0.327
interaction score (4H2503-bN): -0.645
interaction score (4H2692-bN): -2.06
interaction score (4H348-bN): 0.419
interaction score (4H492-bN): 0.186
interaction score (4H319-bN): -0.708
interaction score (4H2588-bN): 0.453
interaction score (4H2717-bN): -1.42
interaction score (O4-bS): -1.2
interaction score (4H2915-bN): -0.299
interaction score (4H40-bN): -0.263
interaction score (4H3277-bN): 0.0524
interaction score (4H477-bN): -0.639

B4: 4H2518-bA (peptide)
chain: DKIAQLEQKNAELKQENAELEWKIAQLKQ
interaction score (4H2518-bA): 0.343
interaction score (4H730-bA): -0.626
interaction score (4H349-bA): -0.372
interaction score (4H932-bA): -1.08
interaction score (4H2931-bA): -0.288
interaction score (4H949-bA): -0.976
interaction score (4H2760-bA): -0.635
interaction score (P4A): -1.32
interaction score (4H3041-bA): 0.486
interaction score (4H796-bA): -1.33
interaction score (O8-bN): -2.05
interaction score (4H3364-bA): -0.361
interaction score (4H2859-bA): -0.00645
interaction score (4H264-bA): -1
interaction score (4H3381-bA): -0.773
interaction score (4H56-bA): -1.52
interaction score (4H2585-bA): -0.589
interaction score (4H3297-bA): -0.628

B5: 4H855-bH (peptide)
chain: DEIQELKKKIEELKRENWELEKKNQELER
interaction score (4H953-bH): -1.14
interaction score (4H918-bH): -0.637
interaction score (P4A-bN): -0.185
interaction score (4H968-bH): 0.133
interaction score (4H855-bH): -0.389

B6: 4H2238-AA (peptide)
chain: DKIAALEAENAALEAKNAALKAKIAALKG
interaction score (4H2513-AA): 2.15
interaction score (4H2536-AA): -1.01
interaction score (4H3664-AA): -1.15
interaction score (4H3605-AA): -0.657
interaction score (4H2608-AA): -1.6
interaction score (4H55-AA): -1.77
interaction score (4H2726-AA): -0.445
interaction score (4H481-AA): 1.84
interaction score (4H3625-AA): -1.18
interaction score (4H2614-AA): -1.25
interaction score (4H3922-AA): 1.59
interaction score (4H2238-AA): -0.902
interaction score (4H4033-AA): 1.31
interaction score (4H662-AA): 1.18
interaction score (4H2935-AA): -1.18
interaction score (4H369-AA): 2.28
interaction score (4H327-AA): -0.966
